Measured values as given in patent US20220074941A1, “HSP90 COMBINATION THERAPY” (Sloan-Kettering Institute for Cancer Research, priority 2011, published 2022).

Legend:
[1] = tested on: Hsp90 complexes in K562 cell extract; assay: Nano-LC-MS/MS of PU-beads pull-downs; format: binding; details: protein identified in PU-beads pull-down of K562 cell extract, QSTAR-Elite QTof MS
Experimental: Protein cargo isolated from cell lysate with PU-beads or control-beads was subjected to proteomic analysis by nano liquid chromatography coupled to tandem mass spectrometry (nano LC-MS/MS). Initial protein identification was performed using the Mascot search engine, and was further evaluated using Scaffold Proteome Software (Tables 5a-d).
(§1) Lysates prepared as mentioned above were first pre-cleaned by incubation with control beads overnight at 4° C. […] Beads were washed with lysis buffer, proteins eluted by boiling in 2% SDS, separated on a denaturing gel and Coomassie stained according to manufacturer's procedure (Biorad). […] Analyses of the batch purified pools were done using a QSTAR-Elite hybrid quadrupole time-of-flight mass spectrometer (QTof MS) (AB/MDS Sciex), equipped with a nano spray ion source. Peptide mixtures (in 20 μL) are loaded onto a trapping guard column (0.3×5-mm PepMap C18 100 cartridge from LC Packings) using an Eksigent nano MDLC system (Eksigent Technologies, Inc) at a flow rate of 20 μL/min. […] Electrospray ionization (ESI) needle voltage was set at about 1800 V. The mass analyzer is operated in automatic, data-dependent MS/MS acquisition mode, with the threshold set to 10 counts per second of doubly or triply charged precursor ions selected for fragmentation scans. Survey scans of 0.25 sec are recorded from 400 to 1800 amu; up to 3 MS/MS scans are then collected sequentially for the selected precursor ions, recording from 100 to 1800 amu. The collision energy is automatically adjusted in accordance with the m/z value of the precursor ions selected for MS/MS. Selected precursor ions are excluded from repeated selection for 60 sec after the end of the corresponding fragmentation duty cycle. […] One missed tryptic cleavage site was allowed, precursor ion mass tolerance=0.4 Da fragment ion mass tolerance=0.4 Da, protein modifications were allowed for Met-oxide, Cys-acrylamide and N-terminal acetylation. MudPit scoring was typically applied with ‘require bold red’ activated, and using significance threshold score p<0.05. Unique peptide counts (or ‘spectral counts’) and percent sequence coverages for all identified proteins were exported to Scaffold Proteome Software (version 2_06_01, www.proteomesoftware.com) for further bioinformatic analysis (Table 5a). Using output from Mascot, Scaffold validates, organizes, and interprets mass spectrometry data, allowing more easily to manage large amounts of data, to compare samples, and to search for protein modifications.

[2] = tested on: Hsp90 complexes in Mia-PaCa-2 cell extract; assay: Nano-LC-MS/MS of PU-beads pull-downs; format: binding, human; details: protein identified in PU-beads pull-down of Mia-PaCa-2 cell extract; QSTAR-Elite QTof MS
Experimental: as §1

Molecule | Number of Assigned Spectra, K562 Prep 1 [1] | Number of Assigned Spectra, K562 Prep 2 [1] | Number of Assigned Spectra, Mia-Paca 2 [2]
CTTN (protein, UniProt Q14247 1-550, looked up) Src substrate cortactin: MWKASAGHAVSIAQDDAGADDWETDPDFVNDVSEKEQRWGAKTVQGSGHQEHINIHKLRENVFQEHQTLKEKELETGPKASHGYGGKFGVEQDRMDKSAVGHEYQSKLSKHCSQVDSVRGFGGKFGVQMDRVDQSAVGFEYQGKTEKHASQKDYSSGFGGKYGVQADRVDKSAVGFDYQGKTEKHESQRDYSKGFGGKYGIDKDKVDKSAVGFEYQGKTEKHESQKDYVKGFGGKFGVQTDRQDKCALGWDHQEKLQLHESQKDYKTGFGGKFGVQSERQDSAAVGFDYKEKLAKHESQQDYSKGFGGKYGVQKDRMDKNASTFEDVTQVSSAYQKTVPVEAVTSKTSNIRANFENLAKEKEQEDRRKAEAERAQRMAKERQEQEEARRKLEEQARAKTQTPPVSPAPQPTEERLPSSPVYEDAASFKAELSYRGPVSGTEPEPVYSMEAADYREASSQQGLAYATEAVYESAEAPGHYPAEDSTYDEYENDLGITAVALYDYQAAGDDEISFDPDDIITNIEMIDDGWWRGVCKGRYGLFPANYVELRQ | 6 | 6 | 2
NAT10 (protein, UniProt Q9H0A0 1-1025, looked up) RNA cytidine acetyltransferase: MHRKKVDNRIRILIENGVAERQRSLFVVVGDRGKDQVVILHHMLSKATVKARPSVLWCYKKELGFSSHRKKRMRQLQKKIKNGTLNIKQDDPFELFIAATNIRYCYYNETHKILGNTFGMCVLQDFEALTPNLLARTVETVEGGGLVVILLRTMNSLKQLYTVTMDVHSRYRTEAHQDVVGRFNERFILSLASCKKCLVIDDQLNILPISSHVATMEALPPQTPDESLGPSDLELRELKESLQDTQPVGVLVDCCKTLDQAKAVLKFIEGISEKTLRSTVALTAARGRGKSAALGLAIAGAVAFGYSNIFVTSPSPDNLHTLFEFVFKGFDALQYQEHLDYEIIQSLNPEFNKAVIRVNVFREHRQTIQYIHPADAVKLGQAELVVIDEAAAIPLPLVKSLLGPYLVFMASTINGYEGTGRSLSLKLIQQLRQQSAQSQVSTTAENKTTTTARLASARTLYEVSLQESIRYAPGDAVEKWLNDLLCLDCLNITRIVSGCPLPEACELYYVNRDTLFCYHKASEVFLQRLMALYVASHYKNSPNDLQMLSDAPAHHLFCLLPPVPPTQNALPEVLAVIQVCLEGEISRQSILNSLSRGKKASGDLIPWTVSEQFQDPDFGGLSGGRVVRIAVHPDYQGMGYGSRALQLLQMYYEGRFPCLEEKVLETPQEIHTVSSEAVSLLEEVITPRKDLPPLLLKLNERPAERLDYLGVSYGLTPRLLKFWKRAGFVPVYLRQTPNDLTGEHSCIMLKTLTDEDEADQGGWLAAFWKDFRRRFLALLSYQFSTFSPSLALNIIQNRNMGKPAQPALSREELEALFLPYDLKRLEMYSRNMVDYHLIMDMIPAISRIYFLNQLGDLALSAAQSALLLGIGLQHKSVDQLEKEIELPSGQLMGLFNRIIRKVVKLFNEVQEKAIEEQMVAAKDVVMEPTMKTLSDDLDEAAKEFQEKHKKEVGKLKSMDLSEYIIRGDDEEWNEVLNKAGPNASIISLKSDKKRKLEAKQEPKQSKKLKNRETKNKKDMKLKRKK | 8 | 3 | 1
HEATR6 (protein, UniProt Q6AI08 1-1181, looked up) HEAT repeat-containing …: MAAVQVVGSWPSVQPREAPREAIPERGNGFRLLSARLCALRPDDSSSARTEIHLLFDQLISENYSEGSGVAPEDVSALLVQACRLVPLNQNHLVSKVSQLIHHLLNRLQVIVDEQHLDFLLAYTISAIHQCSSWTHREILQALAALVYCNGSKCQKYLPELLGNTGLLMKLSDLAQSDPEVRRAAVHCMANLCLSVPGQPYLEEPYQNVCFQAFLTILQSPKSSDMDDITFCMLLQNALKGIQSLLNGGRMKLTQTDELGALLAVLKKFMFHGLPGLNIEMPTVLYPTPLPQYDGRTPIKPQQSESSASRPTLNKKKKSKVKPKKIQQGEEEEKESSGEIEAAPVTGTGRVNLHEGNTWCPSSLGVQSLPLDGSGAAEKDGVSSSFSSSSWKRVSSSESDFSDAEGGMQSKMRSYQAKVRQGALVCFLSTIKSIEKKVLYGYWSAFIPDTPELGSPQSVSLMTLTLKDPSPKTRACALQVLSAILEGSKQFLSVAEDTSDHRRAFTPFSVMIACSIRELHRCLLLALVAESSSQTVTQIIKCLANLVSNAPYDRLKLSLLTKVWNQIKPYIRHKDVNVRVSSLTLLGAIVSTHAPLPEVQLLLQQPCSSGLGNSNSATPHLSPPDWWKKAPAGPSLEETSVSSPKGSSEPCWLIRLCISIVVLPKEDSCSGSDAGSAAGSTYEPSPMRLEALQVLTLLARGYFSMTQAYLMELGEVICKCMGEADPSIQLHGAKLLEELGTGLIQQYKPDSTAAPDQRAPVFLVVMFWTMMLNGPLPRALQNSEHPTLQASACDALSSILPEAFSNLPNDRQMLCITVLLGLNDSKNRLVKAATSRALGVYVLFPCLRQDVIFVADAANAILMSLEDKSLNVRAKAAWSLGNLTDTLIVNMETPDPSFQEEFSGLLLLKMLRSAIEASKDKDKVKSNAVRALGNLLHFLQPSHIEKPTFAEIIEESIQALISTVLTEAAMKVRWNACYAMGNVFKNPALPLGTAPWTSQAYNALTSVVTSCKNFKVRIRSAAALSVPGKREQYGSVDQYARIWNALVTALQKSEDTIDFLEFKYCVSLRTQICQALIHLLSLASASDLPCMKETLELSGNMVQSYILQFLKSGAEGDDTGAPHSPQERDQMVRMALKHMGSIQAPTGDTARRAIMGFLEEILAVCFDSSGSQGALPGLTNQ | 2 | 1 | 0
TRIPI3 (protein, UniProt Q15645 1-432, looked up) Pachytene checkpoint protein …: MDEAVGDLKQALPCVAESPTVHVEVHQRGSSTAKKEDINLSVRKLLNRHNIVFGDYTWTEFDEPFLTRNVQSVSIIDTELKVKDSQPIDLSACTVALHIFQLNEDGPSSENLEEETENIIAANHWVLPAAEFHGLWDSLVYDVEVKSHLLDYVMTTLLFSDKNVNSNLITWNRVVLLHGPPGTGKTSLCKALAQKLTIRLSSRYRYGQLIEINSHSLFSKWFSESGKLVTKMFQKIQDLIDDKDALVFVLIDEVESLTAARNACRAGTEPSDAIRVVNAVLTQIDQIKRHSNVVILTTSNITEKIDVAFVDRADIKQYIGPPSAAAIFKIYLSCLEELMKCQIIYPRQQLLTLRELEMIGFIENNVSKLSLLLNDISRKSEGLSGRVLRKLPFLAHALYVQAPTVTIEGFLQALSLAVDKQFEERKKLAAYI | 3 | 3 | 8
AIP (protein, UniProt O00170 1-330, looked up) AH receptor-interacting …: MADIIARLREDGIQKRVIQEGRGELPDFQDGTKATFHYRTLHSDDEGTVLDDSRARGKPMELIIGKKFKLPVWETIVCTMREGEIAQFLCDIKHVVLYPLVAKSLRNIAVGKDPLEGQRHCCGVAQMREHSSLGHADLDALQQNPQPLIFHMEMLKVESPGTYQQDPWAMTDEEKAKAVPLIHQEGNRLYREGHVKEAAAKYYDAIACLKNLQMKEQPGSPEWIQLDQQITPLLLNYCQCKLVVEEYYEVLDHCSSILNKYDDNVKAYFKRGKAHAAVWNAQEAQADFAKVLELDPALAPVVSRELRALEARIRQKDEEDKARFRGIFSH | 10 | 0 | 0
FAM120A (protein, UniProt Q9NZB2 1-1118, looked up) Constitutive coactivator of …: MGVQGFQDYIEKHCPSAVVPVELQKLARGSLVGGGRQRPPQTPLRLLVDADNCLHRLYGGFYTDWVSGGQWNHMLGYLAALAKACFGGNIELFVFFNGALEKARLHEWVKRQGNERQTAQQIVSHVQNKGTPPPKVWFLPPVCMAHCIRLALIRFHVKVAQSIEDHHQEVIGFCRENGFHGLVAYDSDYALCNIPYYFSAHALKLSRNGKSLTTSQYLMHEVAKQLDLNPNRFPIFAALLGNHILPDEDLASFHWSLLGPEHPLASLKVRAHQLVLPPCDVVIKAVADYVRNIQDTSDLDAIAKDVFQHSQSRTDDKVIRFKRAIGYYSATSKPMSFHPPHYLAARPGPFGMPGMVPPHVPPQMLNIPQTSLQAKPVAPQVPSPGGAPGQGPYPYSLSEPAPLTLDTSGKNLTEQNSYSNIPHEGKHTPLYERSSPINPAQSGSPNHVDSAYFPGSSTSSSSDNDEGSGGATNHISGNKIGWEKTGSHSEPQARGDPGDQTKAEGSSTASSGSQLAEGKGSQMGTVQPIPCLLSMPTRNHMDITTPPLPPVAPEVLRVAEHRHKKGLMYPYIFHVLTKGEIKIAVSIEDEANKDLPPAALLYRPVRQYVYGVLFSLAESRKKTERLAFRKNRLPPEFSPVIIKEWAAYKGKSPQTPELVEALAFREWTCPNLKRLWLGKAVEDKNRRMRAFLACMRSDTPAMLNPANVPTHLMVLCCVLRYMVQWPGARILRRQELDAFLAQALSPKLYEPDQLQELKIENLDPRGIQLSALFMSGVDMALFANDACGQPIPWEHCCPWMYFDGKLFQSKLLKASREKTPLIDLCDGQADQAAKVEKMRQSVLEGLSFSRQSHTLPFPPPPALPFYPASAYPRHFGPVPPSQGRGRGFAGVCGFGGPYGETVATGPYRAFRVAAASGHCGAFSGSDSSRTSKSQGGVQPIPSQGGKLEIAGTVVGHWAGSRRGRGGRGPFPLQVVSVGGPARGRPRGVISTPVIRTFGRGGRYYGRGYKNQAAIQGRPPYAASAEEVAKELKSKSGESKSSAMSSDGSLAENGVMAEEKPAPQMNGSTGDARAPSHSESALNNDSKTCNTNPHLNALSTDSACRREAALEAAVLNKEE | 1 | 1 | 12
